In test [1] the target is fusin/CXCR4 receptor (UniProt P61073). Kind of test: flow cytometry, fluorescently labeled 12G5 on untreated U937 cells. In general terms: In flow cytometry, cells or beads pass a laser one at a time.
For test [2] the target is unchanged. Kind of test: flow cytometry on U937 cells, background subtracted from the 12G5 data.

Chain of UniProt P61073 (P61073 whole entry): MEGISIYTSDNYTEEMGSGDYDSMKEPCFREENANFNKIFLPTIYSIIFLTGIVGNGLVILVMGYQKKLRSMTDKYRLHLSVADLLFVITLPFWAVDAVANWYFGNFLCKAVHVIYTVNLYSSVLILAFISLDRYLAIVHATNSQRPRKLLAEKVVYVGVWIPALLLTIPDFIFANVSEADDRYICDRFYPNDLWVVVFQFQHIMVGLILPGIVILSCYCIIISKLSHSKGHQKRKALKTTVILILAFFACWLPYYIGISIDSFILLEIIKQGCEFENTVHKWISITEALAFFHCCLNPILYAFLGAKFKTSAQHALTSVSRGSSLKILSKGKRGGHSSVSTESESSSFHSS

Turning to “anti-fusin/CXCR4 12G5 monoclonal antibody”, the Median Fluorescence (net of isotype control) in test [1] was determined as 23.2.

For the substance isotype control (antibody), in test [2], the median fluorescence stood at 3.6.

These data come from US20050020528A1.
